{
  "source": "patent US20190083600",
  "system": "T1, RSV attachment (G) glycoprotein of RSV strain A2",
  "T1 sequence": "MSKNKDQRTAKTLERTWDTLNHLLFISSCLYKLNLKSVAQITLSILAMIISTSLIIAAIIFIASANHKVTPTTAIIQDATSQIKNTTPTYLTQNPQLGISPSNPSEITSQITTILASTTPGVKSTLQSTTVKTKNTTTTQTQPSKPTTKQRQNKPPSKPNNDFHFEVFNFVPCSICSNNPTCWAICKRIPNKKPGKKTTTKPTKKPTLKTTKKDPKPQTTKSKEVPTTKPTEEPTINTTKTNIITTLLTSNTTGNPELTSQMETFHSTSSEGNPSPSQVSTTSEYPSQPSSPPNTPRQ",
  "data": [
    {"substance": "cathepsin L", "values": [
      {"measurement": "G protein cleavage on virions treated in vitro with 50 ng/ul cathepsin L at pH 5.5 (immunoblot)", "result": "When incubated with cathepsin L after growth, the virus that was grown in the presence of a cathepsin L inhibitor contained a cleaved G protein"}
    ]}
  ]
}
